Data as given in patent publication US20200190213A1 (REVITOPE, published 2020).

B1: TWICE335 (other)
heavy: EVQLLEQSGAELVRPGTSVKISCKASGYAFTNYWLGWVKQRPGHCLEWIGDIFPGSGNIHYNEKFKGKATLTADKSSSTAYMQLSSLTFEDSAVYFCARLRNWDEPMDYWGQGTTVTVSSGGGSGGGGSQVQLVESGGGVVQPGRSLRLSCAASGFTFSSYTMHWVRQAPGKGLEWVTFISYDGNNKYYADSVKGRFTISRDNSKNTLYLQMNSLRAEDTAIYYCARTGWLGPFDYWGQGTLVTVSSGGGIEGRGGGDKTHTCPPCPAPELLGGPSVFLFPPKPKDTLMISRTPEVTCVVVDVSHEDPEVKFNWYVDGVEVHNAKTKPREEQYQSTYRVVSVLTVLHQDWLNGKEYKCKVSNKALPAPIEKTISKAKGQPREPQVYTLPPSRDELTKNQVKLTCLVKGFYPSDIAVEWESNGQPENNYKTTPPVLDSDGSFFLYSLLTVDKSRWQQGNVFSCSVMHEALHNHYTQKSLSLSPG
light: ELVMTQSPSSLTVTAGEKVTMSCKSSQSLLNSGNQKNYLTWYQQKPGQPPKLLIYWASTRESGVPDRFTGSGSGTDFTLTISSVQAEDLAVYYCQNDYSYPLTFGCGTKLEIKGGGGSGGGGSQAVVTQEPSLTVSPGGTVTLTCRSSTGAVTASNYANWVQQKPGQAPRGLIGGTNKRAPWTPARFSGSLLGGKAALTITGAQAEDEADYYCALWYSNLWVFGGGTKLTVLGGGIEGRGGGDKTHTCPPCPAPELLGGPSVFLFPPKPKDTLMISRTPEVTCVVVDVSHEDPEVKFNWYVDGVEVHNAKTKPREEQYQSTYRVVSVLTVLHQDWLNGKEYKCKVSNKALPAPIEKTISKAKGQPREPQVYTLPPSRDELTKNQVSLTCLVSGFYPSDIAVEWESNGQPENNYKTTPPVLDSDGSFKLYSKLTVDKSRWQQGNVFSCSVMHEALHNHYTQKSLSLSPG
notes: The anti-EpCAM targeting moiety is a disulfide-stabilized Fv (Cys at VH 44 and VL 100, Kabat); hetero-Fc dimerization domain; also called dsFv Ipilimumab VH SP34 VL Fc
B2: TWICE278 (other)
heavy: EVQLLEQSGAELVRPGTSVKISCKASGYAFTNYWLGWVKQRPGHGLEWIGDIFPGSGNIHYNEKFKGKATLTADKSSSTAYMQLSSLTFEDSAVYFCARLRNWDEPMDYWGQGTTVTVSSASTKGPSVFPLAPSSKSTSGGTAALGCLVKDYFPEPVTVSWNSGALTSGVHTFPAVLQSSGLYSLSSVVTVPSSSLGTQTYICNVNHKPSNTKVDKKVEPKSCDKTHTGGGGSGGGGSQVQLVESGGGVVQPGRSLRLSCAASGFTFSSYTMHWVRQAPGKGLEWVTFISYDGNNKYYADSVKGRFTISRDNSKNTLYLQMNSLRAEDTAIYYCARTGWLGPFDYWGQGTLVTVSSGGGIEGRGGGDKTHTCPPCPAPELLGGPSVFLFPPKPKDTLMISRTPEVTCVVVDVSHEDPEVKFNWYVDGVEVHNAKTKPREEQYQSTYRVVSVLTVLHQDWLNGKEYKCKVSNKALPAPIEKTISKAKGQPREPQVYTLPPSRDELTKNQVKLTCLVKGFYPSDIAVEWESNGQPENNYKTTPPVLDSDGSFFLYSLLTVDKSRWQQGNVFSCSVMHEALHNHYTQKSLSLSPG
light: ELVMTQSPSSLTVTAGEKVTMSCKSSQSLLNSGNQKNYLTWYQQKPGQPPKLLIYWASTRESGVPDRFTGSGSGTDFTLTISSVQAEDLAVYYCQNDYSYPLTFGAGTKLEIKRTVAAPSVFIFPPSDEQLKSGTASVVCLLNNFYPREAKVQWKVDNALQSGNSQESVTEQDSKDSTYSLSSTLTLSKADYEKHKVYACEVTHQGLSSPVTKSFNRGECGGGGSGGGGSGGGGSQAVVTQEPSLTVSPGGTVTLTCRSSTGAVTASNYANWVQQKPGQAPRGLIGGTNKRAPWTPARFSGSLLGGKAALTITGAQAEDEADYYCALWYSNLWVFGGGTKLTVLGGGIEGRGGGDKTHTCPPCPAPELLGGPSVFLFPPKPKDTLMISRTPEVTCVVVDVSHEDPEVKFNWYVDGVEVHNAKTKPREEQYQSTYRVVSVLTVLHQDWLNGKEYKCKVSNKALPAPIEKTISKAKGQPREPQVYTLPPSRDELTKNQVSLTCLVSGFYPSDIAVEWESNGQPENNYKTTPPVLDSDGSFKLYSKLTVDKSRWQQGNVFSCSVMHEALHNHYTQKSLSLSPG
notes: One TWICE component: anti-EpCAM (Solitomab) Fab, Ipilimumab VH, SP34 VL, FXa-cleavable linkers, hetero-Fc; Uncleaved in the EpCAM ELISA; In the bridging ELISA it was tested alone, also after FXa cleavage; also called Ipilimumab VH SP34 VL Fc
B3: CD3 Fc-fusion protein (murine IgG2a Fc) (Fc fusion)
chain: DGNEEMGGITQTPYKVSISGTTVILTCPQYPGSEILWQHNDKNIGGDEDDKNIGSDEDHLSLKEFSELEQSGYYVCYPRGSKPEDANFYLYLRARVCENCMEMD
notes: Soluble antigen of the bridging ELISA; not shown: murine IgG2a Fc

What was measured:
[1] = target: T1, Recombinant soluble EpCAM-His6 protein (UniProt P16422 24-265); assay: ELISA on coated EpCAM-His6
T1 construct: Coated on ELISA plates at 5 ug/ml; also called target antigen; not shown: His6 tag
T1 sequence (looked up): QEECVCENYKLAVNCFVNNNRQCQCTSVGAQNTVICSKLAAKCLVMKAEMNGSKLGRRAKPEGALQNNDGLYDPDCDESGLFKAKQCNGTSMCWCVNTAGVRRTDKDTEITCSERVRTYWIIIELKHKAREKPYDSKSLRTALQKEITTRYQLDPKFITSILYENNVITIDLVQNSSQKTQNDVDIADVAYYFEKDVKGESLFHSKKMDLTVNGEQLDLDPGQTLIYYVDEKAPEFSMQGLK
From the text: TWICE molecules were engineered with the CD3 antibody SP34 and the CTLA4 antibody Ipilimumab and containing the hetero-Fc dimerization domain. In some examples, the anti-EpCAM antibody Solitomab was used as a Fab (TWICE277 and TWICE278), in other examples this antibody was used as a disulfide-stabilized Fv (dsFv, TWICE332 and TWICE335) by engineering a disulfide between the residue 44 of the VH and residue 100 of the VL (referring to Kabat numbering). The TWICE molecules were expressed and purified by Protein A affinity chromatography as described above, and their ability to bind to EpCAM was tested in an ELISA binding assay. Recombinant soluble EpCAM-His6 protein (produced in-house) was coated on ELISA plates at 5 μg/ml at 4° C. overnight and plates blocked with 1% BSA in PBS. Serial dilutions of TWICE were allowed to bind to EpCAM, and the bound TWICE were detected with a mouse anti-human Fc secondary (JDC-10 Abcam, ab99759).

[2] = target: T2, Recombinant soluble EpCAM-His6 protein (UniProt P16422 24-265); assay: ELISA
T2 chain: T1 sequence (looked up)

[3] = target: B3; assay: CD3 bridging ELISA on coated EpCAM, CD3-Fc detected with anti-mouse Fc
Experimental: (§1) To test the domain swap and generation of functional paratopes (i.e., paired VH/VL domains) by TWICE pairs, a bridging ELISA assay was developed that measures the ability of TWICE pairs to bind target antigen and immune cell engaging molecules simultaneously. The schematic drawing in FIG. 9A illustrates the principle of this bridging ELISA. Briefly, the ELISA plates are coated with target antigen (recombinant soluble EpCAM, black hexagon) at a concentration of 5 μg/ml overnight. TWICE molecules can be activated by cleavage with FXa as described above, and then added to the plate at a serial dilution. The TWICE can bind to the target antigen with their target binding moiety, which is drawn as Fab (4 grey ovals) in FIG. 9A. Binding to the target antigen (EpCAM) on the plate brings the TWICEs in close proximity, which allows the immune cell binding domain and the complementary binding domain to undergo domain swap and form complete immune cell binding paratopes (black and white ovals in FIG. 9A). The functional complementation is measured by incubation with an antigen that is bound by the immune cell binding domain, such as CD3 (striped triangle in FIG. 9A). The antigen is provided as an Fc-fusion protein (murine IgG2a Fc), and can therefore be detected with an anti-mouse Fc secondary antibody. […]

[4] = target: T3, CTLA-4 Fc-fusion protein (murine IgG2a Fc) (murine, UniProt P16410 36-161 (human entry), limits assumed); assay: CTLA-4 bridging ELISA on coated EpCAM, CTLA-4-Fc detected with anti-mouse Fc
T3 construct: Soluble antigen of the bridging ELISA; not shown: murine IgG2a Fc
Experimental: as §1

[5] = target: T4, TWICE277 plus TWICE278, combined, not cleaved; assay: CD3 bridging ELISA on coated EpCAM
T4 construct: Two-component pair with intact hetero-Fc dimerization domains
Experimental: as §1

T3 sequence (P16410 36-161 limits assumed): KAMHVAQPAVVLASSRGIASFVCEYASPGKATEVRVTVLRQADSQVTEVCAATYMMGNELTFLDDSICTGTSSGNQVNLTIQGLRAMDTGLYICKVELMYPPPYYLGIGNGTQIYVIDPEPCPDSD

| Binder | binding result [1] | EC50 [2] | binding result [3] | binding result [4] | binding result [5] |
| --- | --- | --- | --- | --- | --- |
| B1 | binds | 1.04 nM | – | – | – |
| B2 | binds | 1.21 nM | no binding | no binding | – |
| B3 | – | – | – | – | no binding |
